The text below walks through data of PMC9044925.

The first assay addresses PTP-CIF3 (Trypanosoma brucei). Kind of assay: co-IP; PTP-tagged protein precipitated from T. brucei lysate with IgG-Sepharose beads, 30 min at 4°C, IP buffer, five washes; 3HA-tagged partner detected by anti-HA immunoblot; complementation lines induced with tetracycline. (In western blotting, separated proteins are transferred to a membrane and probed.)
“CIF1-3HA (ectopic, full-length CIF1) (natural protein)” came in with a percent of the input protein immunoprecipitated of 50%.

Take CIF1-ΔIDR2-3HA (natural protein): the percent of the input protein immunoprecipitated amounted to 72%.

CIF1-ΔIDR1-3HA (domain or fragment): the percent of the input protein immunoprecipitated stood at 24%.

The next assay deals with CIF1 (endogenous) (Trypanosoma brucei (endogenous in T. brucei cells)). The experiment in a line: co-IP; endogenous CIF1 or TbPLK precipitated from T. brucei lysate with anti-CIF1 or anti-TbPLK antibody and protein A-Sepharose beads, 30 min at 4°C, IP buffer; 3HA-tagged CIF3* and mutants detected by anti-HA immunoblot; band intensity by ImageJ, normalised to CIF1 and compared with the input.
Substance CIF3*-ΔCC2-3HA (natural protein) had a percent of the input protein immunoprecipitated of 31%.

As for CIF3*-ΔCC1-3HA (domain or fragment), the percent of the input protein immunoprecipitated stood at 16%.

In turn, CIF3*-ΔCC3-3HA (natural protein) gave a percent of the input protein immunoprecipitated of 3%.

“CIF3*-3HA (full-length recoded, RNAi-resistant CIF3) (natural protein)” displayed a percent of the input protein immunoprecipitated of 21%.
